Measured values reported in article PMC10978931, “Structure and function of Semaphorin-5A glycosaminoglycan interactions” (Nature Communications, 2024).

B1: human Semaphorin-5A TSR3-4, Sema5A_(TSR3-4) (residues 652P-765T) (domain or fragment, UniProt Q13591 652-765, looked up)
chain: PHMFWTGWGPWERCTAQCGGGIQARRRICENGPDCAGCNVEYQSCNTNPCPELKKTTPWTPWTPVNISDNGGHYEQRFRYTCKARLADPNLLEVGRQRIEMRYCSSDGTSGCST
modifications: C-mannosyl tryptophan at W656 and W659; N-glycans reduced to single residues by EndoF1 (crystals)
notes: Semaphorin-5A, human, UniProtKB Q13591, residues 652P-765T (thrombospondin type-1 repeats 3 and 4); The tag was cleaved by HRV 3C protease for crystallization; Inter-protomer disulfides C689-C689' and C733-C733'; source: HEK293T, transfected (with kifunensine for crystallization), purified (Ni-NTA, 3C cleavage, SEC); not shown: 3C-Avi-His6, C-terminal, cleaved
B2: human Semaphorin-5A ectodomain Sema5A_(sema-TSR1-7) (residues 23E-944S) (domain or fragment, UniProt Q13591 23-944, looked up)
chain: EAQGTTQCQRTEHPVISYKEIGPWLREFRAKNAVDFSQLTFDPGQKELVVGARNYLFRLQLEDLSLIQAVEWECDEATKKACYSKGKSKEECQNYIRVLLVGGDRLFTCGTNAFTPVCTNRSLSNLTEIHDQISGMARCPYSPQHNSTALLTAGGELYAATAMDFPGRDPAIYRSLGILPPLRTAQYNSKWLNEPNFVSSYDIGNFTYFFFRENAVEHDCGKTVFSRAARVCKNDIGGRFLLEDTWTTFMKARLNCSRPGEVPFYYNELQSTFFLPELDLIYGIFTTNVNSIAASAVCVFNLSAIAQAFSGPFKYQENSRSAWLPYPNPNPHFQCGTVDQGLYVNLTERNLQDAQKFILMHEVVQPVTTVPSFMEDNSRFSHVAVDVVQGREALVHIIYLATDYGTIKKVRVPLNQTSSSCLLEEIELFPERRREPIRSLQILHSQSVLFVGLREHVVKIPLKRCQFYRTRSTCIGAQDPYCGWDVVMKKCTSLEESLSMTQWEQSISACPTRNLTVDGHFGVWSPWTPCTHTDGSAVGSCLCRTRSCDSPAPQCGGWQCEGPGMEIANCSRNGGWTPWTSWSPCSTTCGIGFQVRQRSCSNPTPRHGGRVCVGQNREERYCNEHLLCPPHMFWTGWGPWERCTAQCGGGIQARRRICENGPDCAGCNVEYQSCNTNPCPELKKTTPWTPWTPVNISDNGGHYEQRFRYTCKARLADPNLLEVGRQRIEMRYCSSDGTSGCSTDGLSGDFLRAGRYSAHTVNGAWSAWTSWSQCSRDCSRGIRNRKRVCNNPEPKYGGMPCLGPSLEYQECNILPCPVDGVWSCWSPWTKCSATCGGGHYMRTRSCSNPAPAYGGDICLGLHTEEALCNTQPCPESWSEWSDWSECEASGVQVRARQCILLFPMGSQCSGNTTESRPCVFDS
notes: Semaphorin-5A, human, UniProtKB Q13591, residues 23E-944S (sema, PSI and TSR1-7 domains); Glycosylated (11 predicted N-glycan sites); also called full-length ectodomain human Sema5A; Sema5A ectodomain; source: HEK293T, transfected, conditioned medium; purified (Ni-NTA, SEC); not shown: His6, C-terminal, kept

Tests used:
[1] = target: the molecule itself; assay: crystal structure; Sema5A_(TSR3-4), four crystal forms (apo, nitrate, sulfate, sucrose octasulfate), sitting drop at 20 °C, 1.56-2.72 Å
[2] = target: the molecule itself; assay: mass photometry; Sema5A_(sema-TSR1-7) alone, 100 nM (half of it at measurement), 100 mM NaCl

Protein | stoichiometry N [1] | stoichiometry N [2]
B1 | 2 | –
B2 | – | 2
